These are literature values, as cited in paper PMC9331257.

For data set [1], the target named is PAC1R (Homo sapiens) (UniProt P41586). Description: radioligand binding.
For data set [2], the target named is PACAP type II receptor (Homo sapiens) (UniProt P32241). Description: radioligand binding.
Data set [3] concerns the target PAC1R (Homo sapiens) (UniProt P41586). Description: [125I]Ac-His1-PACAP27 displacement.
The next data set has as its target VPAC2R (Homo sapiens) (UniProt P41587). Description: [125I]Ac-His1-PACAP27 displacement.
Another data set deals with VPAC1R (Homo sapiens) (UniProt P32241). Description: [125I]VIP displacement.
Data set [4] deals with PAC1R (Homo sapiens) (UniProt P41586). Description: radioligand.
The target of data set [5] is PACAP type II receptor (Homo sapiens) (UniProt P32241). Description: radioligand.

Chain of UniProt P41586 (P41586 21-468): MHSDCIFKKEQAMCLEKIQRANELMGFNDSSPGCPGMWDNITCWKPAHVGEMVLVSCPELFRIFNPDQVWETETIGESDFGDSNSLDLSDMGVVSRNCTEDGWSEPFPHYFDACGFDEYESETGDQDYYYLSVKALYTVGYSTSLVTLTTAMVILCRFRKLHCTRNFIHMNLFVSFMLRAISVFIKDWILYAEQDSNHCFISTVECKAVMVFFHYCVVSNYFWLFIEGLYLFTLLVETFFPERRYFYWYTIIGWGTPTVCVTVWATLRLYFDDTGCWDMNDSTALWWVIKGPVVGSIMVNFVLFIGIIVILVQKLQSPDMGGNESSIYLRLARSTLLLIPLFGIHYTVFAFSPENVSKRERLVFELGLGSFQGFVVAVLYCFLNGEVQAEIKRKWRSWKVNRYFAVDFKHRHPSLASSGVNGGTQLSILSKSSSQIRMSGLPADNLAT
Chain of VIP (P01282 125-152): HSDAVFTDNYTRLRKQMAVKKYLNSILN
Chain of PACAP (P18509 82-129): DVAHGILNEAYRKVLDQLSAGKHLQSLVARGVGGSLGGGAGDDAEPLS
Chain of UniProt P41587 (P41587 24-438): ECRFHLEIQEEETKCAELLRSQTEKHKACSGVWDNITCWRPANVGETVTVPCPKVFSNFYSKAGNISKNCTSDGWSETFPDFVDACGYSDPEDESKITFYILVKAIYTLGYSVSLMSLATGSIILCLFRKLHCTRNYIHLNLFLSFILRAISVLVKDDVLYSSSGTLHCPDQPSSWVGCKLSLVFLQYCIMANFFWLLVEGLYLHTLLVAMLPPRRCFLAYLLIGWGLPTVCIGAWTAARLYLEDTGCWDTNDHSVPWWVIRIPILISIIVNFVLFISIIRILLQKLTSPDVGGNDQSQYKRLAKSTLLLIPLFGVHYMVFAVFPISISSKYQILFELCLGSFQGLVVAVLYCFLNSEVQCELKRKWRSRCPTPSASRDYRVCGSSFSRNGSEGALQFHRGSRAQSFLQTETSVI

With PACAP (from UniProt P18509), the Kd (with PAC1R (Homo sapiens) [1]; in data set [2]) was 0.5 nM throughout.
As for PACAP(6-38) 6-38 (from UniProt P18509), the results for the Ki in the data set with PAC1R (Homo sapiens) [3], with VPAC2R (Homo sapiens) and with VPAC1R (Homo sapiens) were 30 nM, 40 nM and 600 nM, respectively.
On to VIP (from UniProt P01282), for which the Kd in the data set with PAC1R (Homo sapiens) [4] was over 500 nM; in data set [5], 0.5 nM.

By Kd is commonly meant the free concentration of one partner at which half of the binding sites on the other are occupied at equilibrium, for simple one-to-one binding. One may read the Ki as the dissociation constant of the complex between target and ligand, obtained from inhibition or displacement.
